Test results from paper PMC10786891, “Massively parallel profiling of RNA-targeting CRISPR-Cas13d”.

T1: EsCas13d, nuclease-dead (Eubacterium siraeum, UniProt B0MS50, R295A;H300A;R849A;H854A)
T1 sequence: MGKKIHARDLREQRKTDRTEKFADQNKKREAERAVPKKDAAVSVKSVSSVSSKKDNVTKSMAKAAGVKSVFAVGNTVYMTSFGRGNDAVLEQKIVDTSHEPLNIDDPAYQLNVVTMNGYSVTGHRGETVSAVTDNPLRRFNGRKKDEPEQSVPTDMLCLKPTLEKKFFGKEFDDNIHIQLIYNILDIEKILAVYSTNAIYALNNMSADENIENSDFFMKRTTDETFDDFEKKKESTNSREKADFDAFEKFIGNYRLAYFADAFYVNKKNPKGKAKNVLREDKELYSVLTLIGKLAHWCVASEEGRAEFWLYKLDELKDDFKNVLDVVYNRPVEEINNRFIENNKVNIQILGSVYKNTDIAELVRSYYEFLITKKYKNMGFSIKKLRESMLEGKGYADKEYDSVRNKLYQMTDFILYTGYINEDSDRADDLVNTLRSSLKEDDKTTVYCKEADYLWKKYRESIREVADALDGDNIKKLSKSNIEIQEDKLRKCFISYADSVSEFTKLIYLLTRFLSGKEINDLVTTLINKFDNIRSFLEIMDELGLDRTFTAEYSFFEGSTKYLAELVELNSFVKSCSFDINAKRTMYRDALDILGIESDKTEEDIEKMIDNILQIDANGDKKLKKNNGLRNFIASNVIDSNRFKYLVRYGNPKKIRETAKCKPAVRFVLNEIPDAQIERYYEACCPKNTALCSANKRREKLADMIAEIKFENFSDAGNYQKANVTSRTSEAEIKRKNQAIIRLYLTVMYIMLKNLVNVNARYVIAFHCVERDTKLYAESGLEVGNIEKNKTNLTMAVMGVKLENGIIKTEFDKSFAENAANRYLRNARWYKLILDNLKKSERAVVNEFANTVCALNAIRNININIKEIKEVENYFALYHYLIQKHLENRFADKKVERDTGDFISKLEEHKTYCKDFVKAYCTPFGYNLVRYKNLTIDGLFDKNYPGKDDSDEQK

B1: target 1 insC 3' of 19,insA 3' of 13 (mixed)
RNA 1: CACCCGUGCAAAAAUGCAGGGGUCUAAAACUGAGCGGAUAACCUCUCUAUGG
RNA 2: GGGAAUGGAUCCACAUCUACGAAUUCGUACCAUCAGAGAGAGUUAUCCGCUCACCGAGAUCGGAAGAGCACACGU
B2: target 1 U3C,G12C (mixed)
RNA 1: CACCCGUGCAAAAAUGCAGGGGUCUAAAACUGAGCGGAUAACCUCUCUAUGG
RNA 2: GGGAAUGGAUCCACAUCUACGAAUUCGUACCAUAGAGAGCUUAUCCGCCCACCGAGAUCGGAAGAGCACACGU
B3: target 1 G5C,C22A (mixed)
RNA 1: CACCCGUGCAAAAAUGCAGGGGUCUAAAACUGAGCGGAUAACCUCUCUAUGG
RNA 2: GGGAAUGGAUCCACAUCUACGAAUUCGUAACAUAGAGAGGUUAUCCCCUCACCGAGAUCGGAAGAGCACACGU
B4: target 1 insG 3' of 8,insU 3' of 2 (mixed)
RNA 1: CACCCGUGCAAAAAUGCAGGGGUCUAAAACUGAGCGGAUAACCUCUCUAUGG
RNA 2: GGGAAUGGAUCCACAUCUACGAAUUCGUACCAUAGAGAGGUUAUGCCGCUCUACCGAGAUCGGAAGAGCACACGU
B5: target 1 insA 3' of 6,insC 3' of 1 (mixed)
RNA 1: CACCCGUGCAAAAAUGCAGGGGUCUAAAACUGAGCGGAUAACCUCUCUAUGG
RNA 2: GGGAAUGGAUCCACAUCUACGAAUUCGUACCAUAGAGAGGUUAUCCAGCUCACCCGAGAUCGGAAGAGCACACGU
B6: target 1 insU 3' of 13,insC 3' of 3 (mixed)
RNA 1: CACCCGUGCAAAAAUGCAGGGGUCUAAAACUGAGCGGAUAACCUCUCUAUGG
RNA 2: GGGAAUGGAUCCACAUCUACGAAUUCGUACCAUAGAGAGUGUUAUCCGCUCCACCGAGAUCGGAAGAGCACACGU
B7: target 1 insA 3' of 19,insC 3' of 15 (mixed)
RNA 1: CACCCGUGCAAAAAUGCAGGGGUCUAAAACUGAGCGGAUAACCUCUCUAUGG
RNA 2: GGGAAUGGAUCCACAUCUACGAAUUCGUACCAUAAGAGCAGGUUAUCCGCUCACCGAGAUCGGAAGAGCACACGU
B8: target 1 insU 3' of 20,insA 3' of 19 (mixed)
RNA 1: CACCCGUGCAAAAAUGCAGGGGUCUAAAACUGAGCGGAUAACCUCUCUAUGG
RNA 2: GGGAAUGGAUCCACAUCUACGAAUUCGUACCAUUAAGAGAGGUUAUCCGCUCACCGAGAUCGGAAGAGCACACGU
B9: target 1 insC 3' of 20,insA 3' of 15 (mixed)
RNA 1: CACCCGUGCAAAAAUGCAGGGGUCUAAAACUGAGCGGAUAACCUCUCUAUGG
RNA 2: GGGAAUGGAUCCACAUCUACGAAUUCGUACCACUAGAGAAGGUUAUCCGCUCACCGAGAUCGGAAGAGCACACGU
B10: target 1 insU 3' of 12,insG 3' of 6 (mixed)
RNA 1: CACCCGUGCAAAAAUGCAGGGGUCUAAAACUGAGCGGAUAACCUCUCUAUGG
RNA 2: GGGAAUGGAUCCACAUCUACGAAUUCGUACCAUAGAGAGGUUUAUCCGGCUCACCGAGAUCGGAAGAGCACACGU
B11: target 1 A9C,U10G (mixed)
RNA 1: CACCCGUGCAAAAAUGCAGGGGUCUAAAACUGAGCGGAUAACCUCUCUAUGG
RNA 2: GGGAAUGGAUCCACAUCUACGAAUUCGUACCAUAGAGAGGUGCUCCGCUCACCGAGAUCGGAAGAGCACACGU
B12: target 1 insG 3' of 21,insG 3' of 8 (mixed)
RNA 1: CACCCGUGCAAAAAUGCAGGGGUCUAAAACUGAGCGGAUAACCUCUCUAUGG
RNA 2: GGGAAUGGAUCCACAUCUACGAAUUCGUACCGAUAGAGAGGUUAUGCCGCUCACCGAGAUCGGAAGAGCACACGU
B13: target 1 A1U,A18U (mixed)
RNA 1: CACCCGUGCAAAAAUGCAGGGGUCUAAAACUGAGCGGAUAACCUCUCUAUGG
RNA 2: GGGAAUGGAUCCACAUCUACGAAUUCGUACCAUUGAGAGGUUAUCCGCUCUCCGAGAUCGGAAGAGCACACGU
B14: target 1 C6A,U10G (mixed)
RNA 1: CACCCGUGCAAAAAUGCAGGGGUCUAAAACUGAGCGGAUAACCUCUCUAUGG
RNA 2: GGGAAUGGAUCCACAUCUACGAAUUCGUACCAUAGAGAGGUGAUCAGCUCACCGAGAUCGGAAGAGCACACGU
B15: target 1 A16U,G17A (mixed)
RNA 1: CACCCGUGCAAAAAUGCAGGGGUCUAAAACUGAGCGGAUAACCUCUCUAUGG
RNA 2: GGGAAUGGAUCCACAUCUACGAAUUCGUACCAUAAUGAGGUUAUCCGCUCACCGAGAUCGGAAGAGCACACGU
B16: target 1 C22G (mixed)
RNA 1: CACCCGUGCAAAAAUGCAGGGGUCUAAAACUGAGCGGAUAACCUCUCUAUGG
RNA 2: GGGAAUGGAUCCACAUCUACGAAUUCGUAGCAUAGAGAGGUUAUCCGCUCACCGAGAUCGGAAGAGCACACGU
B17: target 1 insG 3' of 22,insC 3' of 15 (mixed)
RNA 1: CACCCGUGCAAAAAUGCAGGGGUCUAAAACUGAGCGGAUAACCUCUCUAUGG
RNA 2: GGGAAUGGAUCCACAUCUACGAAUUCGUACGCAUAGAGCAGGUUAUCCGCUCACCGAGAUCGGAAGAGCACACGU
B18: target 1 insG 3' of 6,insC 3' of 5 (mixed)
RNA 1: CACCCGUGCAAAAAUGCAGGGGUCUAAAACUGAGCGGAUAACCUCUCUAUGG
RNA 2: GGGAAUGGAUCCACAUCUACGAAUUCGUACCAUAGAGAGGUUAUCCGGCCUCACCGAGAUCGGAAGAGCACACGU
B19: target 1 insU 3' of 14,insU 3' of 7 (mixed)
RNA 1: CACCCGUGCAAAAAUGCAGGGGUCUAAAACUGAGCGGAUAACCUCUCUAUGG
RNA 2: GGGAAUGGAUCCACAUCUACGAAUUCGUACCAUAGAGAUGGUUAUCUCGCUCACCGAGAUCGGAAGAGCACACGU
B20: target 1 insU 3' of 17,insU 3' of 15 (mixed)
RNA 1: CACCCGUGCAAAAAUGCAGGGGUCUAAAACUGAGCGGAUAACCUCUCUAUGG
RNA 2: GGGAAUGGAUCCACAUCUACGAAUUCGUACCAUAGUAGUAGGUUAUCCGCUCACCGAGAUCGGAAGAGCACACGU
B21: target 1 insA 3' of 12,insC 3' of 12 (mixed)
RNA 1: CACCCGUGCAAAAAUGCAGGGGUCUAAAACUGAGCGGAUAACCUCUCUAUGG
RNA 2: GGGAAUGGAUCCACAUCUACGAAUUCGUACCAUAGAGAGGACUUAUCCGCUCACCGAGAUCGGAAGAGCACACGU
B22: target 1 insU 3' of 20,insA 3' of 15 (mixed)
RNA 1: CACCCGUGCAAAAAUGCAGGGGUCUAAAACUGAGCGGAUAACCUCUCUAUGG
RNA 2: GGGAAUGGAUCCACAUCUACGAAUUCGUACCAUUAGAGAAGGUUAUCCGCUCACCGAGAUCGGAAGAGCACACGU
B23: target 1 insA 3' of 21,insG 3' of 3 (mixed)
RNA 1: CACCCGUGCAAAAAUGCAGGGGUCUAAAACUGAGCGGAUAACCUCUCUAUGG
RNA 2: GGGAAUGGAUCCACAUCUACGAAUUCGUACCAAUAGAGAGGUUAUCCGCUGCACCGAGAUCGGAAGAGCACACGU
B24: target 1 insU 3' of 18,insA 3' of 6 (mixed)
RNA 1: CACCCGUGCAAAAAUGCAGGGGUCUAAAACUGAGCGGAUAACCUCUCUAUGG
RNA 2: GGGAAUGGAUCCACAUCUACGAAUUCGUACCAUAUGAGAGGUUAUCCAGCUCACCGAGAUCGGAAGAGCACACGU
B25: target 1 insA 3' of 17,insC 3' of 13 (mixed)
RNA 1: CACCCGUGCAAAAAUGCAGGGGUCUAAAACUGAGCGGAUAACCUCUCUAUGG
RNA 2: GGGAAUGGAUCCACAUCUACGAAUUCGUACCAUAGAAGAGCGUUAUCCGCUCACCGAGAUCGGAAGAGCACACGU
B26: target 1 C2G,U8A (mixed)
RNA 1: CACCCGUGCAAAAAUGCAGGGGUCUAAAACUGAGCGGAUAACCUCUCUAUGG
RNA 2: GGGAAUGGAUCCACAUCUACGAAUUCGUACCAUAGAGAGGUUAACCGCUGACCGAGAUCGGAAGAGCACACGU
B27: target 1 insA 3' of 13,insU 3' of 4 (mixed)
RNA 1: CACCCGUGCAAAAAUGCAGGGGUCUAAAACUGAGCGGAUAACCUCUCUAUGG
RNA 2: GGGAAUGGAUCCACAUCUACGAAUUCGUACCAUAGAGAGAGUUAUCCGCUUCACCGAGAUCGGAAGAGCACACGU
B28: target 1 insU 3' of 15,insG 3' of 14 (mixed)
RNA 1: CACCCGUGCAAAAAUGCAGGGGUCUAAAACUGAGCGGAUAACCUCUCUAUGG
RNA 2: GGGAAUGGAUCCACAUCUACGAAUUCGUACCAUAGAGUAGGGUUAUCCGCUCACCGAGAUCGGAAGAGCACACGU

Biological target: T1, EsCas13d, nuclease-dead
Experiment: crRNA (strand 1, pre-loaded); Mg2+; 40 mM Tris-HCl pH 7.5, 150 mM NaCl, 6 mM MgCl2, 1 mM DTT, 0.1% Tween-20, 0.2 mg/ml BSA; 25 C; 10 min per concentration, then washed
Details: tags: His6-TwinStrep-SUMO cleaved; N-terminal SNAP kept (SNAP-Surface 488); label: 3' end held by stalled T7 RNA polymerase

Binder | Kd
B1 | 19.5 ± 1.7 nM
B2 | 14 ± 2.3 nM
B3 | 17.3 ± 1.9 nM
B4 | 15.1 ± 0.6 nM
B5 | 17.6 ± 1.1 nM
B6 | 25 ± 5 nM
B7 | 52 ± 9 nM
B8 | 20.9 ± 1.4 nM
B9 | 12.2 ± 1.1 nM
B10 | 6.24 ± 0.17 nM
B11 | 16.1 ± 0.6 nM
B12 | 58 ± 10 nM
B13 | 22 ± 2 nM
B14 | 13.9 ± 0.7 nM
B15 | 44 ± 6 nM
B16 | 61 ± 11 nM
B17 | 48 ± 4 nM
B18 | 13.9 ± 1.1 nM
B19 | 77 ± 9 nM
B20 | 64 ± 28 nM
B21 | 30.4 ± 1.8 nM
B22 | 7.6 ± 0.5 nM
B23 | 11.8 ± 0.6 nM
B24 | 32.6 ± 1.1 nM
B25 | 35 ± 4 nM
B26 | 13.5 ± 0.8 nM
B27 | 3.45 ± 0.26 nM
B28 | 22.5 ± 2.2 nM
